In assay [1] the target is T1, Scrambled 3pE-28 (human).
T1 construct: also called scrambled Aβ 3pE-28; Aβ 3pE-28 peptide with amino acids 3-9 scrambled
T1 peptide: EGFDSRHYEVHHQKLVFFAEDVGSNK
The assay is described as follows: SPR; KD limit divided by the KD for human 3pE Aβ.

In assay [2] the target is human Aβ 1-28 peptide (human). The assay is described as follows: SPR; KD limit divided by the KD for human 3pE Aβ.
Assay [3] addresses T2, human FcRn (human, UniProt P55899 24-297; P61769 21-119).
T2 construct: the construct is not described; also called FcRn (human)
The assay is described as follows: FcRn binding affinity; method not described; average of 5-6 replicates.

Assay [4] deals with T3, cynomolgus FcRn (cynomolgus, UniProt Q8SPV9 24-297; Q8SPW0 21-119).
T3 construct: the construct is not described; also called FcRn (cyno)
T3 sequence (Q8SPV9 24-297 limits assumed, chain 1 of 2): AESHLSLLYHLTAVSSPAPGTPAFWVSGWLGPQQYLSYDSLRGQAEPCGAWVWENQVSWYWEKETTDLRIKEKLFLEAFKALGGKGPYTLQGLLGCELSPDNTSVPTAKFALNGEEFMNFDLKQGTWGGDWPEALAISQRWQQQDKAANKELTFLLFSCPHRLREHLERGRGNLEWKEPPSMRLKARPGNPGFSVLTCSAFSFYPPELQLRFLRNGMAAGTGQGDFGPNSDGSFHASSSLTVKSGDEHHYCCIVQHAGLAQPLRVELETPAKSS
T3 sequence (Q8SPW0 21-119 limits assumed, chain 2 of 2): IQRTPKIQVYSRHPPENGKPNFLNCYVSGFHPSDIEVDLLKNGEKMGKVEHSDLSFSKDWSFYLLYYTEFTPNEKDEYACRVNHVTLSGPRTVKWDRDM
The assay is described as above.

Assay [5] addresses T4, human Aβ 3pE-28 peptide (human, pyroglutamate (pE) at the N-terminus, residue 3 of Aβ). The experiment in a line: SPR; same value as in Table 5.
For assay [6], the target named is T4, human Aβ 3pE-28 peptide. The experiment in a line: SPR, antibody captured on anti-human or anti-mouse Ig chip, peptide injected, 1:1 fit; N=9.
The target in assay [7] is T1, Scrambled 3pE-28. The experiment in a line: SPR; no binding up to the maximum 1.2 µM tested.
Assay [8] addresses human Aβ 1-28 peptide (human). The experiment in a line: SPR; no binding up to the maximum 1.2 µM tested.
For assay [9], the target named is T2, human FcRn. The assay is described as follows: FcRn binding affinity; method not described.
Assay [10] addresses T3, cynomolgus FcRn. The experiment in a line: FcRn binding affinity; method not described.
In assay [11] the target is T5, mouse Aβ 3pE-28 peptide (mouse, pyroglutamate (pE) at the N-terminus, residue 3 of Aβ).
T5 construct: also called rodent Aβ3pE-28
T5 peptide: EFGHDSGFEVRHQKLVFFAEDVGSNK
The experiment in a line: SPR, antibody captured, peptide injected, 1:1 fit.

The next assay has as its target T6, HU-3pE-beta-Amyloid (human).
T6 construct: also called the peptide
The experiment in a line: SPR; HU-3pE-beta-Amyloid 0.6 to 4.5 nM.

Assay [12] has as its target T5, mouse Aβ 3pE-28 peptide. The experiment in a line: SPR; KD for this peptide divided by the KD for human 3pE Aβ.
The target of a further assay is human Aβ 3pE-40 peptide (human, pyroglutamate (pE) at the N-terminus, residue 3 of Aβ). The experiment in a line: SPR (Biacore T200), antibody captured by anti-mouse antibody on CM5, peptide injected, 1:1 fit; mean.
Sequence of human Aβ 3pE-40 peptide (human, pyroglutamate (pE) at the N-terminus, residue 3 of Aβ) (peptide, as listed by the source): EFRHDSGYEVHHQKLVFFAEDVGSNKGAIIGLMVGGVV
For assay [13], the target named is human Aβ1-40 peptide (human). The assay is described as follows: SPR (Biacore T200), antibody captured, peptide injected.
Target sequence in this assay (peptide, as listed by the source): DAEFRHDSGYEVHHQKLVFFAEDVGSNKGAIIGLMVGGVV
The target in assay [14] is T4, human Aβ 3pE-28 peptide. The assay is described as follows: SPR, antibody captured on anti-human or anti-mouse Ig chip, peptide injected, 1:1 fit; N=1.
Assay [15] deals with human Aβ1-40 peptide (human). The assay is described as follows: sandwich ELISA, BAMB31_1 coated, JRF/cAβ40/28-HRPO detection.
A further assay concerns the target T7, human AβpE11-40 (human, pyroglutamate (pE) at the N-terminus, residue 11 of Aβ).
T7 construct: also called Aβ11pE-40
T7 peptide: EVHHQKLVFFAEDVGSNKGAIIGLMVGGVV
The description is as above.

The target in a further assay is T8, rodent Aβ3pE-40 (rodent, pyroglutamate (pE) at the N-terminus, residue 3 of Aβ).
T8 peptide: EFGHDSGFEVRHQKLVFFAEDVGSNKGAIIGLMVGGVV
Described as above.

The target in the next assay is Aβ3pE-42 (pyroglutamate (pE) at the N-terminus, residue 3 of Aβ). The experiment in a line: sandwich ELISA, BAMB31_1 coated, HRPO-labeled C-terminal antibody for detection.
The next assay deals with T9, AβpE11-42 (human, pyroglutamate (pE) at the N-terminus, residue 11 of Aβ).
T9 construct: also called Aβ11pE-42
T9 peptide: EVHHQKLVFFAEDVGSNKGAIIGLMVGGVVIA
The assay is described as follows: sandwich ELISA, BAMB31_1 coated, JRF/cAβ42/26-HRPO detection.

The target of the next assay is human Aβ1-42 (human). The assay is described as above.

T4 sequence (peptide, as listed by the source): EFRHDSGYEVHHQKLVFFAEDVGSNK
T2 sequence (P55899 24-297 limits assumed, chain 1 of 2): as the sequence (Q8SPV9 24-297 limits assumed, chain 1 of 2) above, with D39N, Q44E, S99G, G189S, N190S, M217L, T269S counted along it
T2 sequence (P61769 21-119 limits assumed, chain 2 of 2): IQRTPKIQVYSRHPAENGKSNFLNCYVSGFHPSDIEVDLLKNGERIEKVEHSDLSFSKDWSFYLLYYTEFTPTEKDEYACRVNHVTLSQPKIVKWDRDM
Sequence of human Aβ 1-28 peptide (human) (peptide, as listed by the source): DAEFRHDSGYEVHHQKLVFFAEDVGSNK

B1: BAMB675 (antibody, human IgG1, kappa)
heavy: QVQLVQSGAEVKKPGASVKVSCKASGHVFTSYDMYWVRQAPGQGLEWIGYIDSDSGDTSYNQKFKGRVTLTVDTSTSTVYMELSSLRSEDTAVYYCAYYRYAMDYWGQGTLVTVSSASTKGPSVFPLAPSSKSTSGGTAALGCLVKDYFPEPVTVSWNSGALTSGVHTFPAVLQSSGLYSLSSVVTVPSSSLGTQTYICNVNHKPSNTKVDKKVEPKSCDKTHTCPPCPAPELLGGPSVFLFPPKPKDTLYITREPEVTCVVVDVSHEDPEVKFNWYVDGVEVHNAKTKPREEQYNSTYRVVSVLTVLHQDWLNGKEYKCKVSNKALPAPIEKTISKAKGQPREPQVYTLPPSREEMTKNQVSLTCLVKGFYPSDIAVEWESNGQPENNYKTTPPVLDSDGSFFLYSKLTVDKSRWQQGNVFSCSVMHEALHNHYTQKSLSLSPGK
light: DVVMTQSPLSLPVTLGQPASISCKSSQSLLDSRAKTYLTWLQQRPGQSPRRLIYLVSKLDSGVPDRFSGSGSGTDFTLKISRVEAEDVGVYYCWQGTHFPYTFGGGTKLEIKRTVAAPSVFIFPPSDEQLKSGTASVVCLLNNFYPREAKVQWKVDNALQSGNSQESVTEQDSKDSTYSLSSTLTLSKADYEKHKVYACEVTHQGLSSPVTKSFNRGEC
notes: Same V regions as BAMB674; human IgG1 with M37Y, S39T, T41E (YTE) in the Fc (numbering on the constant region, GenBank AEV43323); also called BAMB31 HFA mAb, +YTE IgG1; +YTE mAb
For B1, the “Fold Selectivity” value with Scrambled 3pE-28 [1] is above 46000 fold; with human Aβ 1-28 peptide [2] it was above 46000 fold; with mouse Aβ 3pE-28 peptide [12] it was 3010 fold. The Kd is 111 nM in the assay with human FcRn [3]; 86.4 nM in the assay with cynomolgus FcRn [4]; 0.0257 nM with human Aβ 3pE-28 peptide [5]; 0.0257 nM in the assay with human Aβ 3pE-28 peptide [6]; above 1200 nM in the assay with Scrambled 3pE-28 [7]; above 1200 nM in the assay with human Aβ 1-28 peptide [8]. In addition, the Kd with mouse Aβ 3pE-28 peptide [11] is 77.5 nM; in the assay with HU-3pE-beta-Amyloid it was 0.0443 nM. In addition, the values for the koff with human Aβ 3pE-28 peptide [6], with mouse Aβ 3pE-28 peptide [11] and in the assay with HU-3pE-beta-Amyloid were 8.24e-05 s⁻¹, 0.000333 s⁻¹ and 0.000166 s⁻¹, respectively. Further, the figures for the kon with human Aβ 3pE-28 peptide [6], in the assay with mouse Aβ 3pE-28 peptide [11] and with HU-3pE-beta-Amyloid were 3.24e+06 M⁻¹ s⁻¹, 4680 M⁻¹ s⁻¹ and 3.74e+06 M⁻¹ s⁻¹, respectively. The “fold higher affinity compared with wt IgG1 (BAMB674)” value with human FcRn [9] and with cynomolgus FcRn [10] was around 3 fold throughout.

B2: BAMB31_2a (mIgG2a) (antibody)
heavy: EIQLQQSGPELVKPGTSVKVSCKASGHVFTSYDMYWVKQSHGKSLEWIGYIDSDNGDTSYNQKFKGKATLTVDKSSSTAYMHLNSLTSEDSAVYYCAYYRYAMDYWGQGTSVTVSSAKTTAPSVYPLAPVCGDTTGSSVTLGCLVKGYFPEPVTLTWNSGSLSSGVHTFPAVLQSDLYTLSSSVTVTSSTWPSQSITCNVAHPASSTKVDKKIEPRGPTIKPCPPCKCPAPNLLGGPSVFIFPPKIKDVLMISLSPIVTCVVVDVSEDDPDVQISWFVNNVEVHTAQTQTHREDYNSTLRVVSALPIQHQDWMSGKEFKCKVNNKDLPAPIERTISKPKGSVRAPQVYVLPPPEEEMTKKQVTLTCMVTDFMPEDIYVEWTNNGKTELNYKNTEPVLDSDGSYFMYSKLRVEKKNWVERNSYSCSVVHEGLHNHHTTKSFSRTPGK
light: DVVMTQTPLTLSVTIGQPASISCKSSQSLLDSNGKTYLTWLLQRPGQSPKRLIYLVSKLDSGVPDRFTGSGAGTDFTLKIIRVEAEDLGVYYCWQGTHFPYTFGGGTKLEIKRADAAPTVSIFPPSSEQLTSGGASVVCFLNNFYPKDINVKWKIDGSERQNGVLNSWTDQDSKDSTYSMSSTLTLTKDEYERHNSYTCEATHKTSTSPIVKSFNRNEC
notes: BAMB31 V regions on murine IgG2a; also called BAMB31 (mIgG2a); mIgG2a parent
In the case of B2, in the assay with human Aβ 3pE-40 peptide, the Kd is 0.053 nM, the koff is 4.94e-05 s⁻¹ and the kon worked out at 930000 M⁻¹ s⁻¹. Moreover, the binding result in the assay with human Aβ1-40 peptide [13] is “no binding (tested: 50 nM)”. In the assay with human Aβ 3pE-28 peptide [14], this molecule returned a Kd of 0.0275 nM, a koff of 7.97e-05 s⁻¹ and a kon of 2.89e+06 M⁻¹ s⁻¹.

B3: BAMB31_1 (antibody, mouse IgG1, V domains shown)
VH: EIQLQQSGPELVKPGTSVKVSCKASGHVFTSYDMYWVKQSHGKSLEWIGYIDSDNGDTSYNQKFKGKATLTVDKSSSTAYMHLNSLTSEDSAVYYCAYYRYAMDYWGQGTSVTVSS
VL: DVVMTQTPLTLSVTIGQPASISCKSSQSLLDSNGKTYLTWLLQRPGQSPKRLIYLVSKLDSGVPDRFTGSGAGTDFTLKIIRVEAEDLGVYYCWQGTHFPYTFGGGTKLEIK
notes: Hybridoma antibody
Take B3: the binding result in the assay with human Aβ1-40 peptide [15] is given as “no binding (tested: 10 ng/mL)”; with human AβpE11-40 it was “no binding (tested: 10 ng/mL)”; in the assay with rodent Aβ3pE-40 it was “no binding (tested: 10 ng/mL)”; in the assay with Aβ3pE-42, “binds”; with AβpE11-42, “no binding (tested: 10 ng/mL)”; in the assay with human Aβ1-42, “no binding (tested: 10 ng/mL)”.
